Sequences and labels used below:
B1: INTS3CTD (C-terminal domain of INTS3, residues 572-978) (other)
chain: DQLDESLRDKVLQLQKGSDTEAQCEVMQEIVDQVLEEDFDSEQLSVLASCLQELFKAHFRGEVLPEEITEESLEESVGKPLYLIFRNLCQMQEDNSSFSLLLDLLSELYQKQPKIGYHLLYYLRASKAAAGKMNLYESFAQATQLGDLHTCLMMDMKACQEDDVRLLCHLTPSIYTEFPDETLRSGELLNMIVAVIDSAQLQELVCHVMMGNLVMFRKDSVLNILIQSLDWETFEQYCAWQLFLAHNIPLETIIPILQHLKYKEHPEALSCLLLQLRREKPSEEMVKMVLSRPCHPDDQFTTSILRHWCMKHDELLAEHIKSLLIKNNSLPRKRQSLRSSSSKLAQLTLEQILEHLDNLRLNLTNTKQNFFSQTPILQALQHVQASCDEAHKMKFSDLFSLAEEYED
notes: also called INTS3CTD dimer
B2: INTS6I3BD (INTS3-binding domain of INTS6, residues 803-887) (other)
chain: RSHEEVNTELKAQIMKEIRKPGRKYERIFTLLKHVQGSLQTRLIFLQNVIKEASRFKKRMLIEQLENFLDEIHRRANQINHINSN
notes: It was cloned in pGEX-6P-1 and purified as the INTS3CTD-INTS6I3BD complex; also called INTS6803-887; small domain at the C-terminus of INTS6
B3: SAGE1I3BD (INTS3-binding domain of SAGE1, residues 818-904) (other)
chain: AMAKKINDDIKYQLMKEVRRFGQNYERIFILLEEVQGSMKVKRQFVEFTIKEAARFKKVVLIQQLEKALKEIDSHCHLRKVKHMRKR
notes: Expressed in E. coli with a His-SUMO or GST tag; also called SAGE1818-904; small C-terminal region of SAGE1
B4: SAGE1ΔI3BD (deletion mutant of SAGE1 lacking the I3BD domain) (other)
chain: MQASPLQTSQPTPPEELHAAAYVFTNDGQQMRSDEVNLVATGHQSKKKHSRKSKRHSSSKRRKSMSSWLDKQEDAAVTHSICEERINNGQPVADNVLSTAPPWPDATIAHNIREERMENGQSRTDKVLSTAPPQLVHMAAAGIPSMSTRDLHSTVTHNIREERMENGQPQPDNVLSTGPTGLINMAATPIPAMSARDLYATVTHNVCEQKMENVQPAPDNVLLTLRPRRINMTDTGISPMSTRDPYATITYNVPEEKMEKGQPQPDNILSTASTGLINVAGAGTPAISTNGLYSTVPHNVCEEKMENDQPQPNNVLSTVQPVIIYLTATGIPGMNTRDQYATITHNVCEERVVNNQPLPSNALSTVLPGLAYLATADMPAMSTRDQHATIIHNLREEKKDNSQPTPDNVLSAVTPELINLAGAGIPPMSTRDQYATVNHHVHEARMENGQRKQDNVLSNVLSGLINMAGASIPAMSSRDLYATITHSVREEKMESGKPQTDKVISNDAPQLGHMAAGGIPSMSTKDLYATVTQNVHEERMENNQPQPSYDLSTVLPGLTYLTVAGIPAMSTRDQYATVTHNVHEEKIKNGQAASDNVFSTVPPAFINMAATGVSSMSTRDQYAAVTHNIREEKINNSQPAPGNILSTAPPWLRHMAAAGISSTITRDLYVTATHSVHEEKMTNGQQAPDNSLSTVPPGCINLSGAGISCRSTRDLYATVIHDIQEEEMENDQTPPDGFLSNSDSPELINMTGHCMPPNALDSFSHDFTSLSKDELLYKPDSNEFAVGTKNYSVSAGDPPVTVMSLVETVPNTPQISP
notes: also called SAGE1DI3BD
B5: His-SAGE1-Flag (WT SAGE1) (other, not shown: small tags and cut ends)
chain: MQASPLQTSQPTPPEELHAAAYVFTNDGQQMRSDEVNLVATGHQSKKKHSRKSKRHSSSKRRKSMSSWLDKQEDAAVTHSICEERINNGQPVADNVLSTAPPWPDATIAHNIREERMENGQSRTDKVLSTAPPQLVHMAAAGIPSMSTRDLHSTVTHNIREERMENGQPQPDNVLSTGPTGLINMAATPIPAMSARDLYATVTHNVCEQKMENVQPAPDNVLLTLRPRRINMTDTGISPMSTRDPYATITYNVPEEKMEKGQPQPDNILSTASTGLINVAGAGTPAISTNGLYSTVPHNVCEEKMENDQPQPNNVLSTVQPVIIYLTATGIPGMNTRDQYATITHNVCEERVVNNQPLPSNALSTVLPGLAYLATADMPAMSTRDQHATIIHNLREEKKDNSQPTPDNVLSAVTPELINLAGAGIPPMSTRDQYATVNHHVHEARMENGQRKQDNVLSNVLSGLINMAGASIPAMSSRDLYATITHSVREEKMESGKPQTDKVISNDAPQLGHMAAGGIPSMSTKDLYATVTQNVHEERMENNQPQPSYDLSTVLPGLTYLTVAGIPAMSTRDQYATVTHNVHEEKIKNGQAASDNVFSTVPPAFINMAATGVSSMSTRDQYAAVTHNIREEKINNSQPAPGNILSTAPPWLRHMAAAGISSTITRDLYVTATHSVHEEKMTNGQQAPDNSLSTVPPGCINLSGAGISCRSTRDLYATVIHDIQEEEMENDQTPPDGFLSNSDSPELINMTGHCMPPNALDSFSHDFTSLSKDELLYKPDSNEFAVGTKNYSVSAGDPPVTVMSLVETVPNTPQISPAMAKKINDDIKYQLMKEVRRFGQNYERIFILLEEVQGSMKVKRQFVEFTIKEAARFKKVVLIQQLEKALKEIDSHCHLRKVKHMRKR
notes: also called wild type SAGE1
B6: SAGE1mut (R872A, F873A, K874A, M832A, F838A and Q840A) (other, not shown: small tags and cut ends)
chain: B5 chain with M832A, F838A, Q840A, R872A, F873A, K874A
notes: Derived from the WT SAGE1 plasmid by site-directed mutagenesis; also called mutant SAGE1; Mutant SAGE1

Series [1] deals with the molecule itself. The series is described as follows: homodimerisation of two INTS3CTD protomers; crystal structure (2.3 Å) and calibrated size-exclusion chromatography.
Series [2] deals with B1. In words: purification of the complex, size-exclusion chromatography (FIG. 8B). (In general: In gel filtration, larger molecules generally elute earlier.)
For series [3], the target named is B1. In words: ITC (MicroCal iTC200, 16 °C, single-site model, two independent experiments). How it is done:
The equilibrium dissociation constant of the SAGE1I3BD-INTS3CTD interaction was determined using a MicroCal iTC200 calorimeter (Malvern). The binding enthalpy was measured at 16° C. in 25 mM Tris-HCl pH 8.0, 150 mM NaCl and 5 mM MgCl2. Two independent experiments were performed. ITC data were subsequently analyzed and fitted using Origin 7 software (OriginLab).
All statistical tests of experimental results were performed using the GraphPad Prism 7 unless noted. The statistical significance was calculated via unpaired two-tailed Student's t test. The dissociation constants (Kd) in ITC experiments were calculated using the Origin 7 software as mean±standard error from two independent experiments with a single site-specific binding model. The statistical analysis of in vivo experiments data was performed using nonparametric Mann-Whitney test. Results were represented as mean±standard deviation unless noted and p<0.05 was considered statistically significant.

Series [4] deals with T1, His-INTS3-Strep (human, UniProt Q68E01 2-1043).
T1 construct: also called INTS3 (co-IP construct)
T1 sequence (Q68E01 2-1043): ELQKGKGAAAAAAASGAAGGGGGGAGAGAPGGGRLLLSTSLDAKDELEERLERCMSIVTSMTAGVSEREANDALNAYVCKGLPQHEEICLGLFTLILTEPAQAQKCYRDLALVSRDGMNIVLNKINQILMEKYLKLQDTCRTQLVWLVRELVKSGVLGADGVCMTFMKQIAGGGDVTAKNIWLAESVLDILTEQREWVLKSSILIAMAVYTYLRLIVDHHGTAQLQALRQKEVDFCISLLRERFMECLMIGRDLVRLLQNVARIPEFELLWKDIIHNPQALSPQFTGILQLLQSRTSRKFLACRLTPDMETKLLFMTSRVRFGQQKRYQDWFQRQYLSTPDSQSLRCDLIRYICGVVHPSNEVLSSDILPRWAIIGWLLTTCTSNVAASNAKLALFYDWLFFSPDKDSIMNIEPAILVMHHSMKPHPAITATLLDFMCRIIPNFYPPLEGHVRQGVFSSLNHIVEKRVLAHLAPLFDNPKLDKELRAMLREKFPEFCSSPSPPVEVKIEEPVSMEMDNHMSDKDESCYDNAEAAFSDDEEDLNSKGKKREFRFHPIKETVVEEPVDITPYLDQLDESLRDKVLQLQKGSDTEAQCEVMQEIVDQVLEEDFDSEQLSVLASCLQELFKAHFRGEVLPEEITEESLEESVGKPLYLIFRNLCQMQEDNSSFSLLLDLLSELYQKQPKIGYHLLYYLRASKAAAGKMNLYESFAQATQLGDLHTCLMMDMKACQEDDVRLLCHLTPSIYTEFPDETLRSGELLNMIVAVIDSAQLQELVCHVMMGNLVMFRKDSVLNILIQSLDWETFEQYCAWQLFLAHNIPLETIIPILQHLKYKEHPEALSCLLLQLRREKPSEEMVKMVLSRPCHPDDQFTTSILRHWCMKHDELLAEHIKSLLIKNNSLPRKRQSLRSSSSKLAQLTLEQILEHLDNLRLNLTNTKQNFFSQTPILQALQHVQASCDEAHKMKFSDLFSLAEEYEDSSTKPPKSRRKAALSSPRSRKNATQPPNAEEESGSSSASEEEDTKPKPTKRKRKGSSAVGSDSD
In words: co-IP. Here is the method: (§1) After 48 hours, cells were lysed in IP buffer containing 50 mM Tris-HCl pH 7.5, 150 mM NaCl, 0.1% Triton-X100, 1 mM EDTA and 1×Roche protease inhibitor. The supernatants were incubated overnight with mouse anti-His monoclonal antibody (Proteintech #66005-1-Ig), or rabbit anti-FLAG polyclonal antibody (Proteintech #20543-1-AP).
(§2) Then, protein A/G agarose beads (Millipore, #[…]02) were added and rotated for 2 more hours. The immunoprecipitated complexes were subjected to SDS-PAGE, followed by Western blot and/or MS analyses.

Series [5] addresses T1, His-INTS3-Strep. The series is described as follows: co-IP in transfected HEK-293T cells (FIG. 6C). How it is done: as §1, §2

For six molecules, binding result and Kd results are on record in patent US20230031980A1 (SHANGHAI NINTH PEOPLE S HOSPITAL SHANGHAI JIAO TONG …, published 2023).

Where a chain is given by its changes, count along the chain named. In names and notes the source's numbering stands.

On to B1, for which, in series [1], the binding result is recorded as “binds”.
B2: in series [2], the binding result is listed as “binds”.
The Kd is a measure of binding affinity in units of concentration. Read a low Kd as tighter binding. Take B3: the Kd in series [3] is approximately 39 nM.
Take B4: the binding result in the series with His-INTS3-Strep [4] is on record as “no binding”.
Turning to B5, in the series with His-INTS3-Strep [5], the binding result is “binds”.
Take B6: in the series with His-INTS3-Strep [4], the binding result is listed as “no binding”.
